The results in this text go back to the RNAGym collection of RNA variant scans (doi:10.1073/pnas.2313332121).

First the molecules themselves.
B1: TPR 5TU (parent)
chain: GGAUCUUCUCGAUCUAACAAAAAAGACAAAUCUGCCACAAAGCUUGAGAGCAUCUUCGGAUGCAGAGGCGGCAGCCUUCGGUGGCGCGAUAGCGCCAACGUUCUCAACUAUGACACGCAAAACGCGUGCUCCGUUGAAUGGAGUUUAUCAUG

Variants at the floor of the assay were thinned out.

In this data set the parent is B1. The data set is described as follows: polymerase ribozyme fitness, log enrichment relative to wild type (log ratio); higher = more active; in vitro selection for triplet polymerase activity. The method, boiled down:
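The heterodimeric triplet polymerase ribozyme's subunits were each mutagenized into PCR-built libraries and transcribed. Every library was selected once, in triplicate, by annealing with a biotinylated primer, the partner subunit and triplets, incubating frozen at −7 °C, gel-excising extended constructs, capturing on streptavidin beads and running RT-PCR. Input and output libraries were Illumina-sequenced, with genotypes kept only at ≥10 input reads and ≥1 read per output. Fitness, from inverse-variance-weighted replicate averages, is the base-2 logarithm of genotype enrichment over wild-type enrichment.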
On to GGAUCUUCUGGAUCUACCAAAAAAGACAAAUCUGCUACAAAGCUUGAAAGCAUCUUCGGAUGCUGAGGCGGCAGCCUUCGGUGGCGCCAUAGCGCCAACGUUCUCAACUAUGACACGGAAAACGCGUGCUCCGUUGAAUGGAGUUUAUCAUG, for which the “polymerase ribozyme fitness (log ratio)” value is ≤ -4.2. Regarding GGAUCUUCUCGAUCUAACAAAAAAGACACAUCUGCCACAAAGCUUGAGACCAUCUUCGGAUGCAGAGGCGGCAGCCUUCGGUGGCGCGAUAGCGCCAACGUUCUCAACUAUGAUACGCAAAACGCGUGCUCCGUUGAAUGGAGUUUAUCAUG, the “polymerase ribozyme fitness (log ratio)” value is ≤ -4.2. In the case of GGAUUUUCUCGUUCUAACAAAAAAGACAAAUCUGCCACAAAGCUUGAGAGCAUCUUCGGAUGCAGAGGCGGCAGCCUUCGGUGUCGCGAUAGCGCCAACGUUCUCAACUAUGACACGCAAAACGCGUGCUCCGUUGAAUGGAGUUUAUCAUG it was -1.92. For the variant GGAUCUUCUCGAUCUAACAAAAAAGACAAAUCUGCCACAAAGCUUGAGAGUAUCUUCGGAUGCAGAGGCGGCAGCCUUCGGUGGCGCGAUAGCGACAUCGUUCUCAACUAUGACAGGCAAAACGCGUGCUCCGUUGAAUGGAGUUUAUCAUG, the “polymerase ribozyme fitness (log ratio)” value was 0.822. On to GGAUCUUCUCGAUCUAACAAAAAAGACAAAUCUGCCACAAAGCUUGAGAGCAUCUUCGGAUGAAGAGGCGGCAGCCUUCGGUGGCGAGAUGGCGCCAACGUUCUCAACUAUGACACGCAAAACGCGUGCUCCGUUGAAUGGAGUUUAUCAUG, for which the “polymerase ribozyme fitness (log ratio)” value was ≤ -4.2.

In the case of GGAUCUUCUAGAUCUAACAAAAAAGACAAAUCUGCCACAAAGCUUGAGAGCAUCUUCGGAUGCAGAGGCGGCAGCCUUCGGUGGCGCGAUAGCGCUAACGUUCUCAACUAUGACACGCAAAACGCGUGCUCCGUUGAAUGGAAUUUAUCAUG, the “polymerase ribozyme fitness (log ratio)” value is ≤ -4.2.

For the variant GGAUCUUCUCGACCUAACACAAAAGACAAAUCUGCCACAAAGCUUGAGACCAUCUUCGGAUGCAGAGGCGGCAGCCUUCGGUGGCGCGAUAGCGCCAACGUUCUCAACUAUGACACGCAAAACGCGUGCUCCGUUGAAUGGAGUUUAUCAUG, the “polymerase ribozyme fitness (log ratio)” value was -3.15. In the case of GGAUCUUCUCGAUCUAACAAAAAAGACAAAUCUGCCACAAAGCUUGAGAGCAUCUUCGGAUGCAGAGGAGGCAGCCUUCGGUGACGCGAUAGCGCCAACGUUCUCAACUAUGACACGCAAAACGCGUGCUCCGUUGAAUGGAGUUUAUCAUG it was -2.31. In the case of GGAUCUUCUCGAUCUAACAAAAAAGACAAAUCUGCCACAAAGCUUGAGAGCAUCGUCGGGUGCAGAGGCGGCAGCCUUCGGUGGCGCGAUAGCGCCAACGUUCUCAACUAUGACACGCAAAACGCGUGCUCCGUUGAAUGGAGUUUAUCAUG it was 0.467; in that of GGAUCUUCUCGAUCUAACAAAAAAGACAAAUCUGCCACAAAGCUUGAGAGCGUCUACGGAUGCAGAGGCGGCAGCCUUCGGUGGCGCGAUAGCGCCAACGUUCUCAACUAUGACACGCAAAACGCGUGCUCCGUUGAAUGGAGUUUAUCAUG, -0.876; in that of GGAUAUUCUCGAUCUAACAAAAAAGACAAAUCUGCCACAAAGCUUGAGAGCAUCUUCGGAUGCAGAGGCGGCAGCCUUCGGUGGCGUGAUAGCGCCAACGUUCUCAACUAUGACACGCAAAACGCGUGAUCCGUUGAAUGGAGUUUAUCAUG, -3.51.

As to GGAUCUUCUCGAUCUAACAAAAAAGACAAAUCUGCCACACAGCUUGAGCGCAUAUUCGGAUGCAGAGGCGGCAGCCUUCGGUGGCGCGAUAGCGCUAACGUUCUCAACUAUGAUACGCAAAACGCAUGCUCCGUUGAAUGGAGUUUAUCAUG, the “polymerase ribozyme fitness (log ratio)” value was ≤ -4.2. Take GGAUCUUCUCGAUCUAACAAAAAAGACAAGUCUGCCACAGAGCUUGAGAGCAUAUUCGGAUGCAGAGGCGGCAGCCUUCGGUGGUGCGAUAGCGCCAACGUUCUCAACUAUGACACCCAAAACGCGUGCUCCGUUGAAUGGAGUUUAUCAUG: the “polymerase ribozyme fitness (log ratio)” value is ≤ -4.2. In the case of GGAUCUUCUCGAUCUAACAAAAAAGACAAAUAUGCCACAAAGCUUGAGAACAUCUUCGGAUGCAGAGGCGGCAGCCUUCGGUGGCGCGAUAGCGCCAACGUUCUCAACUAUGACACGCAAAACGCGUGCUCCGUUGGAUGGAGUUUAUCAUG, the “polymerase ribozyme fitness (log ratio)” value is ≤ -4.2. In the case of GGAUCUUCUCCAUGUAACAAAAAAGACAAAUCUGCCACAAAGCUUGAGAGCAUCUUCGGAUGCAGAGGCGGCAGCCUUCGGUGGCGCGAUAGUGCCAACGUUCUCAACUAUGACACGCAAAACGAGUGCUCCGUUGAAUGGAGUUUAUCAUG it was ≤ -4.2; in that of GGAUCUUCUCGAUCUAACAAAAAAGACAAAUCUGCCACAAAGCUUUAGAGCAUCUUCGGAUGCAGAGGCGGCAGCCUUCGGUGGCGCGAUAGCGCCAAAGUUCUCAACUAUGACACGCAAAACGCGUGCUCCGUUGAAUGGAGUUUAUCAUG, -3.99; in that of GGAUCUUCUCGAUCUAACAAAAAAGACAAAUCUGCCACAAAGCUUGCGAGCAUCUUCGGAUGCAGAGGCGGCAGCCUUCGGUUGCGCGAUAGCGCCAACGUUCUCAACUAUGACACGCAAAACGCGUGCUCCGUUGAAUGGAGUUUAUCAUG, -1.01. In the case of GGAUCUUCUCGAUCUAACAAAAAAGACAAAUCUGCCACAAAGCUUGAGUGCAUCUUCGGAUGCAGAGGCGGCAGCCUUCGGUGGCGCGAUAGCGCCAACGUUCUCAACUAUGACACGCAAAACGCGUGCUCCGUUGAAUGGCGUUUAUCAUG it was -1.43; in that of GGAUCUUCUCGAUCUAACAAAAAAGACAAAUCUGCCACCAAGCUUGAGAGCAUGUUCGGAUGCAGAGGCGGCAGCCUUCGGUGGCGCGAUAGAGCCAACGUUCUCAACUAUGACACGCAAAACGCGUGCUCCGUUGAAUGGAGUUUAUCAUG, ≤ -4.2.
